Here are results for one molecule from patent publication US20220364094, “CD44 APTAMER” (The Chiness University Of Hong Kong, published 2022).

The data set deals with CD44 hyaluronic acid binding domain (HABD) (UniProt P16070 P16070:21-178). Kind of data set: ELONA; hardly associated with HABD; epitope expected in region encoded by exons 15-16. The following applies: tags: His-tag, commercial; captured via His-tag antibody; label: biotin (loop of second hairpin, 44G-48A region); two hairpins and one stem (predicted). How it is done: His-tag recombinant CD44 HABD protein was immobilized on ELISA plate using His-tag antibody. The captured CD44 proteins were incubated with various concentrations of biotin-labeled CD44-Apt1 (5 nM-10 μM). Bound Apt1 then were detected by peroxidase-conjugated streptavidin and TMB substrate. […] constant, KD was calculated based on the absorbance values using the one-site binding model for non-linear regression in GraphPad.
The major epitope in CD44 protein that is recognized by the CD44-Apt1 was next determined. CD44 protein consists of an extracellular domain, a transmembrane helical domain, and an intracellular signaling transmission domain (FIG. 1H). The extracellular domain contains a hyaluronic acid binding domain (HABD) at its distal N-terminus and a glycosylation-site enriched variable region, the length of which are vary in different splice variants. Titration sandwich enzyme-linked immunosorbent assay (ELISA) was employed to map the epitope for CD44-Apt1. Antibody targeting the C-terminus of CD44 proteins that is the intracellular signaling domain was immobilized on a polystyrene support. Sites without antibody were blocked using bovine serum albumin. […] The amount of biotin-CD44-Apt1 bound to the captured proteins were evaluated using streptavidin conjugated horseradish peroxidase (HRP) and TMB substrate.

Sequence of CD44 hyaluronic acid binding domain (HABD) (P16070 21-178, one chain of several): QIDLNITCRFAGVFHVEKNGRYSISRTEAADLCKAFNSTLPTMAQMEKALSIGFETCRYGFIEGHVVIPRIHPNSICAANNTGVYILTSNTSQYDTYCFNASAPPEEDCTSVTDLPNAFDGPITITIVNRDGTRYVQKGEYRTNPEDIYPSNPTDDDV

B1: CD44-Apt1 (biotin) (ssDNA)
DNA: ATCCAGAGTGACGCAGCATCGCAACGATTAGTATGCACCCACCGTATAGGTTGGTCTCTGGACACGGTGGCTTAGT
Regarding B1, the Kd was 2360 nM.
